One block for each substance: values may come before it.
What was measured:
[1] = biological target: p60-Tumor Necrosis Factor Receptor Associated Kinase (p60TRAK); experiment: U937 lysate depleted with p13^suc1 -agarose or GST beads, supernatant precipitated with GST-p60Δ15, kinase assay with histone H1
[2] = biological target: p60-Tumor Necrosis Factor Receptor Associated Kinase (p60TRAK)
[3] = biological target: T1, p13^suc1 -agarose (UniProt P08463); experiment: U937 lysate depleted with p13^suc1 -agarose or GST beads, supernatant precipitated with GST-p60Δ8 or GST-p60Δ15, kinase assay with Rb^110
T1 sequence: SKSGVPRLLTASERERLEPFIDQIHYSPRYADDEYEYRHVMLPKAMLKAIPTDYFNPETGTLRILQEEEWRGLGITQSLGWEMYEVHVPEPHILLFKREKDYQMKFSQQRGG

[4] = biological target: GST-p60Δ5 (Homo sapiens (Human)) (UniProt P19438)
[5] = biological target: GST-p60Δ4 (Homo sapiens (Human)) (UniProt P19438)

Substance: p13^suc1 -agarose (from UniProt P08463)
- depletion of p60TRAK activity [1]: 50%

Substance: p49^WEE1 (from UniProt P30291) (enzyme)
- histone kinase activity of p60TRAK [2]: > 70%

Substance: p60-Tumor Necrosis Factor Receptor Associated Kinase (p60TRAK)
- reduction of Rb^110 phosphorylation by p60TRAK after depletion [3]: phosphorylation of the retinoblastoma protein (Rb^110) by p60TRAK after depletion with p13^suc1 -agarose was reduced by greater than 60%

- phosphorylation in an in vitro kinase assay [4]: 50%
- phosphorylation in an in vitro kinase assay [5]: 50%
Substance: p60-Tumor Necrosis Factor Receptor Associated Kinase (p60TRAK) (enzyme)
